# According to US9765346B2, “Biological methods for preparing a fatty dicarboxylic acid” (Verdezyne, Inc., priority 2011, dated 2017):
# Molecular target: T1, Pox5 (Candida tropicalis, UniProt P08790)
# T1 construct: made in house; host or cells: E. coli Rosetta II BL21, pET26b; crude cell lysate (10 ug per reaction)
# Assay type: biochemical, Candida strain ATCC20336
# Protocol: To express an enzyme, a colony from each transformation of Rosetta cells was used to start a 5 ml overnight culture of LB containing the antibiotics kanamycin (to select for pET26b) and chloramphenicol (to select for a second plasmid found in Rosetta II cells that mediates improved translation of eukaryotic proteins expressed in E. coli) grown at 37° C. The next morning, the overnight culture was used to seed 30 ml of LB containing kanamycin and chloramphenicol to an OD600 reading of 0.1. The 30 ml cultures were grown at 37° C. for 2 hours and then placed on ice for 10 minutes. To induce expression, isopropyl-beta-D-thiogalactopyranoside (IPTG) was added to the culture to a final concentration of 0.1 mM. In some cases induction was performed using Novagen Overnight Express Autoinduction System 1 (CAT#71300-3). The cells were then shaken at 15° C. overnight to express the acyl CoA oxidase.
# To test the activity of the acyl CoA oxidase, cells from the overnight induction were pelleted at 1046×g at 4° C. in 50 ml conical tubes. The cell pellets were resuspended in 1 ml of 50 mM KPO4, pH 7.6, 50 μM FAD buffer and then transferred to a 2 ml centrifuge tube. A Misonix Sonicator 3000 (QSonica, Newtown, Conn.) was used to lyse the cells, which were sonicated at a power setting of 2 for 2 pulses of 20 seconds each. The lysates were placed on ice for 30 seconds in between each pulse. To obtain a supernatant, cell debris was pelleted at […] for 10 mins in a 4° C. microcentrifuge. The supernatant was transferred to a 1.5 ml centrifuge tube and Bradford assays (Thermoscientific) were performed on cell lysates according to manufacturer's specifications to determine protein concentration in preparation for the acyl-CoA oxidase assays. A Beckman Coulter DTX-800 Multimode Detector spectrophotometer was used for the assays. The spectrophotometer was set to read for 5 minutes at 500 nm, 30° C. Each reaction was 200 μl in volume and contained 10 μg of cell lysate in 50 mM KPO4, pH 7.6, […] BSA, 0.05% Triton X-100, 250 μM fatty acyl-coA substrate, 50 μM FAD, 10 U horseradish peroxidase, 25 mM p-hydroxybenzoic acid and 1 mM 4-aminoantipyrine. Fatty acyl-CoA substrates covered a range from hexanoyl CoA (six carbon chain length) to oleoyl CoA (eighteen carbon chain length).
# Pox4 and Pox5 from Candida strain ATCC20336 were cloned into pET26b for expression in E. coli and assayed for acyl CoA oxidase activity in vitro. The activity profiles of the genetically modified Pox4 and Pox5 were compared to the activity profile of the wild type enzymes. To alter their substrate activity profile, site directed mutagenesis was performed on several locations in Pox4 and Pox5. Complementary primers encoding the point mutation(s) were used to amplify the coding sequences of Pox4 or Pox5 generating two to four PCR products that were then “stitched” together to regenerate the entire coding region using overlap extension PCR (FIG. 22). […] PCR was performed using oligonucleotides A and B to produce a product with overlap to a PCR product generated using oligonucleotides C and D. The A-B product was used as a primer for the C-D product, and vice versa, for overlap extension. Several mutagenic primer pairs, for example, like the B-C primer pair, were used to produce mutations at different locations that were “stitched” together, i.e. A-B, C-D, E-F, etc. to generate an intact, full length coding region. […]
# [1] = wild type, expressed in E. coli
substance,measurement,setting,value
Pox5: native acyl-CoA oxidase isozyme of Candida strain ATCC20336,activity on C6 and C8 substrates,"FIG. 21, wild type",low activity
same,activity on substrates below C10,"FIG. 21, wild type",decrease in activity
same,substrate specificity,native isozyme,narrow substrate specificity
same,activity on a C6 substrate,[1],not very active
same,substrates on which active,[1],C8 all the way to C18:1
